Patent US20230272086A1 (CHIA TAI TIANQING PHARMACEUTICAL GROUP, published 2023)
Positions count from the first letter of the chain named.

T1: cynomolgus monkey ST2 antigen (Cyno-ST2-his, Sino biological, 90915-C08H) (cynomolgus monkey, UniProt Q01638 19-328 (human entry))
T1 construct: Bought protein; not shown: his tag
T1 chain: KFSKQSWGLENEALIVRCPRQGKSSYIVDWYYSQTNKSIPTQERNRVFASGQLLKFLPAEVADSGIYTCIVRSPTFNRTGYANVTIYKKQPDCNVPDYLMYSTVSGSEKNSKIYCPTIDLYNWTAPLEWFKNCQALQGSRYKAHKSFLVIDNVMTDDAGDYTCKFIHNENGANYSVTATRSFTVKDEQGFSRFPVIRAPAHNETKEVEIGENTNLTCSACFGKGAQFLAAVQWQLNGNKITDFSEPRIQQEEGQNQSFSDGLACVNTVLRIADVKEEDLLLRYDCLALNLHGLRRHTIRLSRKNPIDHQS

T2: recombinant protein containing hST2 extracellular domain with mouse antibody heavy chain Fc tag (hST2-ECD-mFc) (human)
T2 construct: Used for SPR and for ELISA of chimeric and humanized antibodies; also called human ST2 antigen
T2 chain: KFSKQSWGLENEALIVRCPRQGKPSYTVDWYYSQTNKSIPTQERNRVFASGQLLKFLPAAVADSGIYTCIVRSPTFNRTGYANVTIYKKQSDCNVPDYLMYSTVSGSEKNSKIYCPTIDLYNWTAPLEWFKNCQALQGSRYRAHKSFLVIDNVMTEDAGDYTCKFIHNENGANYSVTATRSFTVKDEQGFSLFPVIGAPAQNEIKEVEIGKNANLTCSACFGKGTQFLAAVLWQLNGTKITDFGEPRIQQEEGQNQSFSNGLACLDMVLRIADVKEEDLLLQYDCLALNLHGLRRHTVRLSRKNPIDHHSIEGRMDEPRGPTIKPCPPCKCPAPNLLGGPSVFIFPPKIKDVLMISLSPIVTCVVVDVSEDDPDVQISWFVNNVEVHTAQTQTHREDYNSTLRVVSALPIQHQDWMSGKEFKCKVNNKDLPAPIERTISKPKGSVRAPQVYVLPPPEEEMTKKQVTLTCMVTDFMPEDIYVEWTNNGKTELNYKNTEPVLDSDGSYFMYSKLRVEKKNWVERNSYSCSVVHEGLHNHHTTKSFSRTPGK

B1: RG6149 (antibody Ab2 in CN104334582, prepared in-house) (antibody, human IgG2, kappa, V domains shown)
VH: EVQLVQSGAEVKKPGESLKISCKGSGYSFTNYWIGWVRQMPGKGLEWMGIIYPGNSDTRFSPSFQGQVTISADKSITTAYLQWSSLKASDTAMYYCARHGTSSDYYGLDVWGQGTTVTVSS
VL: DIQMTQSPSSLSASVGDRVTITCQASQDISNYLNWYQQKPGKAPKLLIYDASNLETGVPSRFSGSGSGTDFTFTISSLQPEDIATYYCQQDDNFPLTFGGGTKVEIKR
notes: Control anti-ST2 antibody
B2: GSK3772847 (antibody STLM208 in CN104411333, prepared in-house) (antibody, human IgG2, kappa, V domains shown)
VH: EVQLLESGGGLVQPGGSLRLSCAASGFTFSIYDMIWVRQAPGKGLEWVSSIRGEGGGTYYADSVKGRFTISRDNSKNTLYLQMNSLRAEDTAVYYCARDPWSTEGSFFVLDYWGQGTLVTVSS
VL: EIVLTQSPATLSLSPGERATLSCRASQSVDDDLAWYQQKPGQAPRLLIYDASNRATGIPARFSGSGSGTDFTLTISSLEPEDFAVYYCQQYITAPLTFGQGTKVEIKR
notes: Control anti-ST2 antibody
B3: Humanized 31C8-1.1 (antibody, human IgG2, kappa, V domains shown)
VH: EVQLVQSGAEVKKPGATVKISCKASGYIFIDSEMHWVQQAPGKGLEWMGAIDPETGDTVYAEKFQGRVTITADKSSSTAYMELSSLRSEDTAVYYCTGSTTDYYFAYWGQGTLVTVSS
VL: DIQMTQSPSSLSASVGDRVTITCRSSKSLLHSNGIIYLYWYQQKPGKAPKLLIYQLSNLASGVPSRFSSSGSGTDFTLTISSLQPEDFATYYCAQNLELPFTFGQGTKVEIKR
notes: also called hz31C8-1.1; hz31C81-1.1
B4: Humanized 31C8-1.2 (antibody, human IgG2, kappa, V domains shown)
VH: B3 VH with E1Q, E10K, E62K, Q65K
VL: B3 VL
notes: also called hz31C8-1.2; hz31C81-1.2
B5: Chimeric 31C8 (antibody, human IgG2, kappa, V domains shown)
VH: QVQLQQSGPELVRPGASVTLSCKASGYIFIDSEMHWVKQTPVHGLEWIGAIDPETGDTVYNQKFKGKATLTADKSSSTASMELSSLTSEDSAVYYCTGSTTDYYFAYWGQGTTLTVSS
VL: DIVMTQAAFSNPVTLGTSASISCRSSKSLLHSNGIIYLYWYLQKPGQSPQLLIYQMSNLASGVPDRFSSSGSGTDFTLRISRVEAEDVGVYYCAQNLELPFTFGSGTKLEIKR
notes: also called xi31C8

Target: T1, cynomolgus monkey ST2 antigen …
Assay: ELISA, plate coated with Cyno-ST2-his
Experimental: ST2 binding screening and analysis of antibodies were performed by ELISA using hST2-ECD-mFc (for assays of chimeric and humanized antibodies), hST2-ECD-hFc protein (for assays of hybridoma antibodies) and Cyno-ST2-his (Sino biological, 90915-C08H) as antigens. A high-adsorption 96-well plate (Costar, 9018) was coated with 2 µg/mL hST2-ECD-mFc or Cyno-ST2-his antigen at 100 µL/well and incubated overnight at 4° C. After the antigen not adsorbed was well washed off, the non-specific binding sites were blocked with a blocking buffer (PBS containing 2% bovine serum albumin). After the plate was washed three times with a washing buffer (PBS containing 0.05% (v/v) Tween 20), the anti-ST2 antibodies (serially diluted 3-fold from an initial concentration of 10 nM to 8 concentrations: 3.333 nM, 1.111 nM, 0.370 nM, 0.123 nM, 0.041 nM, 0.014 nM, 0.005 nM, and 0.002 nM) were added at 100 µL/well, and the plate was incubated at room temperature for 1 h. After the plate was washed with the washing buffer, a horseradish peroxidase (HRP)-conjugated secondary antibody was added, and the plate was incubated for another 60 min. After the plate was washed with the washing buffer, the substrate TMB solution (Thermo, 00-4201-56) was added at 100 µL/well, and the plate was incubated at room temperature for 2 min. A stop solution (2 N H₂SO₄) was added at 100 µL/well to terminate the reactions. Colorimetric signals were generated and read at 450 nm using a microplate reader (PE, Envision). The data were analyzed using GraphPad Prism5, and the EC₅₀ values were calculated.
The humanized antibodies hz31C81-1.1 (the amino acid sequence of the heavy chain set forth in SEQ ID NO: 75 and the amino acid sequence of the light chain set forth in SEQ ID NO: 81) and hz31C8-1.2 (the amino acid sequence of the heavy chain set forth in SEQ ID NO: 77 and the amino acid sequence of the light chain set forth in SEQ ID NO: 81) were subjected to affinity, binding, blocking and cell function analyses using the methods described in Example 4, Example 5, Example 6, Example 7, Example 8, Example 9 and Example 10.

EC50 [nM] | Binder
0.178 | B1
0.242 | B2
0.0716 | B3
0.0746 | B4
0.069 | B5

Target: T2, recombinant protein containing hST2 …
Assay: ELISA, plate coated with hST2-ECD-mFc, antibody heated at 72 °C for 5 min; antibody heated at 72° C. for 5 min (Heated column, not the unheated 0.1428 nM)
Experimental: The anti-ST2 antibodies were diluted with PBS buffer to a concentration of 1.5 mg/mL. After being treated at 72° C. for 5 min, the samples were assayed by ELISA for their binding activity for an antigen The ELISA procedure is as follows: A 96-well plate was coated with 2 µg/mL hST2-ECD-mFc as the antigen at 100 µL/well and incubated at 4° C. overnight. After the antigen not adsorbed was well washed off, the non-specific binding sites were blocked with a blocking buffer (PBST containing 1% bovine serum albumin). After the plate was washed three times with a washing buffer (PBST, PBS containing 0.05% (v/v) Tween 20), the anti-ST2 antibodies (serially diluted 3-fold from an initial concentration of 1.5 µg/mL to 8 concentrations) were added at 100 µL/well, and the plate was incubated at 37° C. for 1 h. […] After the plate was incubated at room temperature for 5 min, a stop solution (2 N H₂SO₄) was added to stop the reactions. The signals were read at 450 nm using a plate reader (PE, Envision). The data were analyzed using GraphPad Prism5, and the EC₅₀ values were calculated.

EC50 [nM] | Binder
1.06 | B1
